Test results as given in the supplement of paper PMC12855868.

B1: library; numbered along this chain (parent)
chain: MAAAGGARLLRAASAVLGGPAGRWLHHAGSRAGSSGLLRNRGPGGSAEASRSLSVSARARSSSEDKITVHFINRDGETLTTKGKVGDSLLDVVVENNLDIDGFGACEGTLACSTCHLIFEDHIYEKLDAITDEENDMLDLAYGLTDRSRLGCQICLTKSMDNMTVRVPETVADARQSIDVGKTS

Variants of: B1
Assay: scaled log2 fold change in cell abundance, elesclomol vs control (0 = silent mean, 1 = nonsense mean) (scaled log2 ratio); higher = higher viability under elesclomol (loss of FDX1 cuproptosis function)
Conditions: glucose 10 mM
Experimental: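 Deep mutational scan of full-length human FDX1: a pooled saturation-mutagenesis ORF library (every residue 2-184 mutated to all 19 amino acids plus stop, and silent codons where available) was expressed by lentivirus in FDX1-knockout ABC1 (14 days) or HEK293T (11 days) cells grown with elesclomol (ES) or DMSO control. Variant abundance came from ORF sequencing. The log2 fold change (ES vs control, mean of duplicates) was centred on the silent-variant mean (0) and scaled to the nonsense-variant mean (1). Higher values mean greater viability under ES, i.e. loss of FDX1 function in cuproptosis.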

[1] = with ABC1 FDX1 KO, elesclomol 5 nM, 14 days
[2] = with HEK293T FDX1 KO, elesclomol 40 nM, 11 days
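Further: variant abundance is its share of total variant reads in each endpoint sample, from next-generation sequencing of the integrated ORF PCR-amplified out of genomic DNA.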

Variant | scaled log2 fold change [1] | scaled log2 fold change [2]
R51G | 0.508 | -0.712
R51V | -0.873 | -0.419
R51E | -0.316 | -0.168
R51Y | 0.343 | -0.174
R51T | 0.0589 | 0.546
R51N | -0.079 | 1.03
R51P | 0.212 | –
R51L | 0.0529 | -0.247
R51Q | -1.02 | -0.603
R51F | 0.269 | 0.664
R51A | 0.176 | -0.204
R51C | 0.374 | -0.169
R51D | -0.0949 | -0.181
R51S | 0.00287 | -0.516
R51K | -0.103 | -1.33
R51M | -0.235 | –
R51H | -0.0671 | -0.14
R51W | 0.239 | 1.75
A59C | -0.665 | 0.732
A59F | 0.319 | -0.721
A59E | -0.245 | 0.171
A59D | -0.0282 | 0.274
S52N | -0.0586 | -0.095
S52G | 0.447 | -0.133
S52E | 0.648 | 0.0946

Variant | scaled log2 fold change [1] | scaled log2 fold change [2]
S52M | 0.212 | -0.953
S52P | -0.128 | –
S52K | 0.174 | -1.31
S52Q | 0.212 | 1.17
S52H | -0.197 | 0.41
S52Y | 0.285 | 0.0679
S52C | 0.431 | -0.0215
S52I | -0.0467 | -0.248
S52A | 0.665 | 0.164
S52T | -0.921 | -0.112
S52F | 0.556 | –
S52V | -0.785 | -0.177
S52W | 0.257 | -0.162
S52R | 0.143 | -1.18
S52D | 0.202 | 0.946
S52L | 0.253 | -0.651
V55K | -0.469 | -0.443
V55E | -0.307 | –
V55M | 0.374 | 0.955
V55H | 0.0403 | 1.23
V55C | 0.313 | 0.374
V55N | -0.28 | 0.815
V55P | -0.481 | 1.06
V55R | 0.114 | 0.865
V55T | 0.178 | -0.356

Variant | scaled log2 fold change [1] | scaled log2 fold change [2]
V55F | 0.0901 | -0.339
V55W | 0.0864 | -0.549
V55Y | 0.0351 | –
V55Q | 0.177 | -0.526
V55L | -0.283 | –
V55D | -0.0142 | –
V55G | 0.169 | -0.106
V55S | 0.162 | -0.104
V55I | 0.323 | 1.26
R58S | 0.12 | -0.815
R58F | -0.105 | -0.229
R58P | 0.228 | 0.00503
R58E | -0.288 | -0.142
R58D | -0.139 | -0.303
R58H | 0.4 | -0.194
R58M | 0.306 | -0.781
R58G | -0.484 | 0.743
R58C | 0.0658 | -0.099
R58I | -0.339 | 0.608
R58Y | -0.339 | -0.258
R58N | -0.417 | -0.0662
R58A | 0.173 | 0.434
R58W | 0.133 | 0.3
R58V | 0.434 | 1.47
R58K | 0.151 | -0.231

Variant | scaled log2 fold change [1] | scaled log2 fold change [2]
R58L | -0.211 | 0.174
R58Q | 0.0532 | -0.891
R58T | -0.167 | -0.0694
S56T | 0.0393 | 1.19
S56Y | -0.541 | 0.934
S56W | -0.00445 | 0.0272
S56P | 0.19 | –
S56L | 0.557 | 1.06
S56M | -0.109 | 0.0191
S56I | -0.125 | -0.305
S56R | 0.43 | –
S56V | 0.301 | -0.368
S56K | -0.052 | 0.357
S56A | 0.574 | –
S56H | 0.238 | 0.979
S56G | -1.11 | 0.888
S56N | 0.0549 | 1.09
S56F | 0.177 | –
S56Q | -0.214 | 0.782
S56E | 0.234 | 0.0723
S56C | -0.222 | -0.162
S56D | -0.745 | 0.383
L53M | 0.133 | 0.406
L53W | 0.155 | 0.498
L53K | 0.299 | 0.00452

Variant | scaled log2 fold change [1] | scaled log2 fold change [2]
L53N | 0.146 | –
L53Q | -0.164 | –
L53V | 0.281 | -0.11
L53G | -0.239 | -1.17
L53I | -1.25 | –
L53T | 0.163 | -0.488
L53A | 0.205 | 0.346
L53D | -0.0291 | –
L53F | 0.298 | -0.0243
L53P | 0.118 | –
L53E | 0.206 | -0.803
L53Y | -0.194 | -0.569
L53H | 0.262 | -0.0475
L53R | 0.0529 | -0.455
L53S | -0.175 | 0.73
L53C | 0.0732 | -0.0888
A47Y | 0.8 | 0.534
A47L | 0.835 | 0.437
A47R | 0.994 | 1.12
A47T | 0.83 | 0.802
A47P | 0.733 | 0.555
